Drawing on patent US20230078601A1 (CLEVELAND CLINIC FOUNDATION, published 2023), this text covers binding result and Kd for one molecule.

Assay [1] addresses T1, mouse AMHR2 (in lysate of a normal young C57BL/6 female mouse ovary) (mouse, UniProt Q8K592 16-568, limits assumed).
T1 construct: Denatured ovary lysate on a Western blot; also called mouse AMHR2-ED
T1 sequence (looked up): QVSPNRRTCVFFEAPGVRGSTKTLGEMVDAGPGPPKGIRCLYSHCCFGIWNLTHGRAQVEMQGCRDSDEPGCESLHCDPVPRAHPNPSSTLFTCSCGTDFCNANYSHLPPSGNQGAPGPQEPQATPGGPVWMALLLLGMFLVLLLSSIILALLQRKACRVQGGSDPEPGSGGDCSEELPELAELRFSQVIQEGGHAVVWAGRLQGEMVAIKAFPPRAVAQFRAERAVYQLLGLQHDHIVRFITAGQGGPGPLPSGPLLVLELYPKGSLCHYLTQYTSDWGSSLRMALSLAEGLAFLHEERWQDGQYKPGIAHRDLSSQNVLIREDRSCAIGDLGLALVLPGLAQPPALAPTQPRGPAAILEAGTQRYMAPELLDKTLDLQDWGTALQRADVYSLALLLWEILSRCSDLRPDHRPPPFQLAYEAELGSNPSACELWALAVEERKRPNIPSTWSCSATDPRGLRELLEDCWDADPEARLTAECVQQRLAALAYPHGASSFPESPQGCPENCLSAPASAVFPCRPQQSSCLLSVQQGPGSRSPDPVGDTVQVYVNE
Nature of the assay: Western blot of mouse ovary lysate. The protocol:
The suspension was centrifuged to remove debris, the lysates were washed in PBS, and 25 μg of protein from each lysate was loaded into each lane of denaturing SDS-PAGE gels (Bio-Rad). Gels were transferred onto polyvinylidene difluoride (PVDF) membranes (Bio-Rad) and treated with the 4D12G1 mAb at 0.001 μg/ml as primary antibody. In FIG. 2D, a commercially available AMHR2-ED mAb (#sc-377413; Santa Cruz Biotechnology, Dallas, Tex.) at 1.0 μg/ml was used instead of the 4D12G1 mAb as the primary antibody for detecting AMHR2-ED. Western blots of lysates were used to detect capase-3-mediated cleavage of poly (ADP-ribose) polymerase-1 (PARP-1) in AMHR2-OVCAR8 cells treated with increasing concentrations of 4D12G1 mAb (1.0-10 μg/ml) by using a primary rabbit antibody for detection of the intact 116 kDa PARP-1 and its 89 kDa cleaved variant associated with apoptosis (Cell Signaling Technology, Danvers, Mass.). Secondary detection antibodies included treatment with a 1:10,000 dilution of an HRP-conjugated rabbit anti-mouse IgG (MilliporeSigma) or a 1:5,000 dilution of an HRP-conjugated goat anti-rabbit antibody (MilliporeSigma). […]
(Immunoblotting shows a protein as a band on a membrane.)

The target in assay [2] is T2, recombinant extracellular domain of human AMHR2 (rhAMHR2-ED), C-terminal hexahistidine-tagged fusion protein (human, UniProt Q16671 18-149).
T2 construct: also called human AMHR2-ED
T2 sequence: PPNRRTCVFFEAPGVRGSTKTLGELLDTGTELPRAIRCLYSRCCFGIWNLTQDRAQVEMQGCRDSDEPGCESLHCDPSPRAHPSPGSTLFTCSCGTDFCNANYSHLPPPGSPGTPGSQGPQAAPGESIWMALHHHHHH
As to the kind of experiment: SPR, Biacore 3000, 25 C; 4D12G1 immobilised by amine coupling, rhAMHR2-ED as analyte, Langmuir 1:1 fit. On the procedure:
Briefly, the 4D12G1 mAb at 300 nM was diluted in sodium acetate at pH 5.0 and covalently immobilized on carboxymethylated dextran over a gold surface using an aqueous solution of N-ethyl-N′-(3-dimethylaminopropyl)carbodiimide (EDC) and N-hydroxysuccinimide (NHS; Sigma-Aldrich). The rhAMHR2-ED receptor analyte at different concentrations (10-1-103 nM) in a running buffer containing 10 mM HEPES at pH 7.4, 150 mM NaCl, 3 mM EDTA, and 0.005% P20 detergent was captured with a […] flow over the immobilized 4D12G1 ligand. Regeneration of flow cells was performed using 10 mM glycine (Sigma-Aldrich) at pH 1.7. All sensorgrams were corrected by subtracting the low signal of the control flow cell and the dissociation curve of the 4D12G1 mAb. The KD values, taking into account affinity and avidity, were calculated using a Langmuir 1:1 fitting model and BIAevaluation 3.2 software (GE Healthcare Bio-Sciences).
An overlapping series of 16-mer peptides spanning the entire 132 amino acid sequence of human AMHR2-ED (FIG. 3A) with moving single amino acid shifts were plated for direct ELISA testing using the 4D12G1 mAb as primary antibody. […]
On the technique in general: SPR reads the build-up and loss of mass on a sensor chip optically.

B1: 4D12G1 mAb (antibody, IgG1, V domains shown)
VH: DVKLVESGGGLVKLGGSLKLSCAASGFTFSRYFMSWVRQTPEKRLELVAAINSDGGRTYYPDTVKGRFTISRDNAKNTLYLQMSSLKSEDTALYYCTRHIYSYYEDYFDYWGQGTTLTVSS
VL: DVVMTQTPLSLPVSLGDQASISCRSSQSLVHSNGNTYLHWYLQKPGQSPKLLIYKVSKRFSGVPDRFSGSGSGTDFTLKISRVEAEDLGVYFCSQSTHVYTFGGGTKLEIK
notes: also called 4D12G1 IgG1 mAb
With B1, the binding result in assay [1] is “binds”. Further, the equilibrium dissociation constant (Kd) in assay [2] came out at 0.119 nM.

In general, Kd refers to the free concentration of one partner at which half of the binding sites on the other are occupied at equilibrium, for simple one-to-one binding.
